Measurements reported in article PMC7477951 (Structure (London, England : 1993), 2019).

T1: HVEM part of the single-chain human CD160-HVEM (sc_CD160:HVEM) (human, UniProt Q92956 39-143)
T1 sequence: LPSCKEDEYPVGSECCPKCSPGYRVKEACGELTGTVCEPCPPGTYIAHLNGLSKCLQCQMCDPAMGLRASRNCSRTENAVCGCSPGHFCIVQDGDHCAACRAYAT


Key:
[1] = target: human HVEM (L39-C162) expressed in Drosophila S2 cells (human) (UniProt Q92956); assay: SPR
[2] = target: T1, HVEM part of the single-chain human …; assay: crystal structure
[3] = target: human LIGHT (L83-V240) expressed in Drosophila S2 cells (human, UniProt O43557 83-240); assay: SEC
Sequence of human LIGHT (L83-V240) expressed in Drosophila S2 cells (O43557 83-240): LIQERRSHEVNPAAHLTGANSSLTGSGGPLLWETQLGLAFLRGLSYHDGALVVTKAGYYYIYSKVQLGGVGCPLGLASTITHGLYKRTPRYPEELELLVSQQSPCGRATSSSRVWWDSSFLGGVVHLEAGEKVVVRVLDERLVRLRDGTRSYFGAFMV

Molecule | Kd [1] [µM] | other results
human CD160 ectodomain (I27-L158) expressed in Drosophila S2 cells (from UniProt O95971 27-158) (domain or fragment) | 6.7 | 
refolded human CD160 ectodomain (residues I27-K144) (from UniProt O95971 27-144) (domain or fragment) | 7.1 | 
CD160 part of the single-chain human CD160-HVEM (sc_CD160:HVEM) (domain or fragment, glycosylated) INITSSASQEGTRLNLICTVWHKKEEAEGFVVFLCKDRSGDCSPETSLKQLRLKRDPGIDGVGEISSQLMFTISQVTPLHSGTYQCCARSQKSGIRLQGHFFSILFTETGNYTVTGLK |  | stoichiometry N [2]: 1
human HVEM (L39-C162) expressed in Drosophila S2 cells (receptor, UniProt Q92956 39-162, looked up) LPSCKEDEYPVGSECCPKCSPGYRVKEACGELTGTVCEPCPPGTYIAHLNGLSKCLQCQMCDPAMGLRASRNCSRTENAVCGCSPGHFCIVQDGDHCAACRAYATSSPGQRVQKGGTESQDTLC |  | binding result [3]: binds
